{
  "source": "paper PMC7411048",
  "about": "“ATP-dependent hydroxylation of an unactivated primary carbon with water” (Nature Communications, 2020)",
  "proteins": {"B1": {"name": "S26DH1 (desmost-1,4-dien-3-one (DDO) hydroxylase; DH5) (Sterolibacterium denitrificans) (protein)", "chain": "PLQHFKGTTASGRFDLGPRTTPKLGNWQDLYRQRWTWDKVAKGSHGWANCRSACEWDLYVKDGVVVREEQSATYEASEPGIPDFNPRGCQKGACYTEVMYGPSRTTVPLKRVGPRGSGKWEKISWEQALREIAVKTVDAAEKWGTDTIYQDLGPNFDFGASTAGRFKFQFMAGGIFADNWAEIGDLNVGASITVGAAHLGGSADEWFLSDFIVVWMMNPSVTQIPDAHFLYEARYNGTELCVIDPQYSATAIHADQWLPLESGTDAALGLAVARYLLDTGAIDLPYIREQTDLPLLARLDTGRFLRESDLKAGGDEDQLYMWHPQKNAAVPAPGCLKNTTRSLKLDFEPPIDGQWKIKLANGEEVVVVPVGAMLKEHLDPWTFEHAAQVTHLHIDQIRKFAEGWAKAERPMVLSSWGSNRYVHSDLMNRTKMLLLMLKGALGKKGAGYQATGWVDLDGFGNAMQMEKSGMTGRLAVMLNAMPPKELFNAIVDIIKKRKTENDVALEGENNYLRNKLCTSDVVEVNLKSEGYRAALSKEQEGLYPRELSDYYDEAHEKGWAPGLPRKNTPKIFFSGGSNLLRRNNLPQYLKAHIWDQMDCIVDVNPKYSYTGTQADYILPAAGWYEKTGIKYTMSYIPYLHYCDAAVPPLAESKGEWEIYWLLTREMENYAKEKNQPILDGCGRGTIDMKTIHQRYTNQGDLGQHDQDKVTEEILRSESTKGMTVEGLRQTGIAKYTATGKNVQATALNNPDWKGEGVLTTLTRFTVHKEPWPTYSGRISSFIDHPWFIEGHEQFATHKDSPKAGGDYPFIFVSCHARWSIHSTWRDTPMMLRLQRGEPLVYLNPTDAAKIGVKDFEYVEIYNNYGSIRMRLKVTAMVRPGVAYYYHAWEPHQFPNHESYKNLIPGIVQPLHYAGGYGHINHALNRFQPGSAVQDTRIGIKPWTGQATGVKPVVVTAEEAAIAERANQAI", "notes": "alpha-beta-gamma complex, Mo-cofactor/FeS/heme b; produced in Thauera aromatica K172 with delta-chaperone (SdhD, delta4); enriched by three columns; with Steroid C26 dehydrogenase 1 beta subunit (FeS electron transfer subunit); Steroid C26 dehydrogenase 1 gamma subunit (heme b subunit)"}},
  "key": {"[1]": {"substrate": "CC(C)=CCC[C@@H](C)[C@H]1CC[C@H]2[C@@H]3CCC4=CC(=O)C=C[C@]4(C)[C@H]3CC[C@]12C", "assay": "UPLC assay of DDO hydroxylation to 26-OH-DDO", "type": "biochemical, Sterolibacterium denitrificans", "conditions": "5 mM K3[Fe(CN)6] as electron acceptor, 50 mM MOPS/KOH pH 7.0, 6% HPCD, 30 °C, anaerobic, enriched enzyme"}, "[2]": {"substrate": "C/C(=C\\CC[C@@H](C)[C@H]1CC[C@H]2[C@@H]3CCC4=CC(=O)C=C[C@]4(C)[C@H]3CC[C@]12C)CO", "assay": "UPLC assay of 26-OH-DDO dehydrogenation to DDO-26-al", "type": "biochemical, Sterolibacterium denitrificans", "conditions": "5 mM K3[Fe(CN)6] as electron acceptor, 50 mM MOPS/KOH pH 7.0, 6% HPCD, 30 °C, anaerobic, enriched enzyme"}},
  "data": [
    {"protein": "B1", "values": [
      {"measurement": "Km", "setting": "[1]", "result": "123 ± 25", "unit": "µM"},
      {"measurement": "Km", "setting": "[2]", "result": "83 ± 12", "unit": "µM"}
    ]}
  ]
}
